Results published in the DeepSol protein solubility set.

assay: soluble on expression in E. coli; label from the status in PepcDB or PDB records

Sequence	soluble on expression in E. coli
MSLQNTVPSETPSPATPSPTSTVNLSDVSSDYWARPFIQAMADNNVIAGFPDGSFRPNQAVTRAEFAALIQKAFPNQNRVRQLSAGGFRDVPAGYWAISPIQYAYETGFLAGYPGNVFSPNQQIPKVQAIVAMTSGLGLTASNTGASTDLSTYYTDASSIPQYAIASVTTATQSNIVVNYPDVKQMNPQQPLTRAEVAALLYQALAKQGRVQPIASNLPASQYIVGGTEGHHHHHH	soluble
MAERPRTIGNALEYVPEAIKTEAICLAALEIQRYGTVLKYIPDALKTEAMCLAAVQKYGYALEYVPEALKTEAICLAAGYEELQYWPEALKTEAVCLAAVEKNSKLLEFVPEALKTEAVCLAAGYKELQYWPEALKTEAPYLAAVQKDGSMLATVPEALKTEAFCLAAVQKNVRAFEYVPEALKTEAVCLAAVEKNGKLLEFVPEALRTEAICLAALQKDSSLLQYIPEALKTEAFCLTAVQKDSSLLQYVPEAFKTEVICLAAVQKDSSLLQYIPEALKTEAFYLAAVRKDGYSLKYIPEALKTEAICLAAVQKNGYLLKYVPEALKTEAICLSAVKQEGSALAYVPEALKTEALCLAAVQKNSSLLQYVPDTFKTEAFEAKMRSVISSGSGSSGYGIELIKWKFLSKEQKEWLEKIPYYYDSSKALEIPAELFTEEFCLAVVLKNSDGSVLQYIPDAKKTEAVCLAAVHERYKNALRYIPDALKT	not soluble
MSLSAMQWERLLDPTRLNDKHGGSREEIGRSPFHKDHDRIVFAGSFRRLGRKTQVHPLTDNDHIHTRLTHSLEVGCVGRSLGMIVGEQLRERLPAWITPADLGVIVQAACLGHDIGNPPFGHAGEYAIRDWFKRAEADGSGLLADLAPAEREDLLTYEGNAQGFRIVTQIEYNQFNGGMRLTAATLGTMLKYPWTVERASRAGKFGCYQSERELLGEVAERLGLLPRGETAWCRHPLAYLVEAADDICYALLDLEDGLEMGILRFDEVAEILIQIAGGAPEGYDGMRARGVSQRRRIATLRGAAMERAVNDVAAVFVAHESALLGGTLSEDLLELCHPDLGWGVGTAKRIARERIFQNERKAKLEIGAYTTLGILLEAFIGAAHELHYSGQSSFKHQRVLALIGENTPKSSWSLYASYRRMLDFIGGMTDHYAVDLAQEMGGRLEGHHHHHH	soluble
MSLGDLPLGWHKLHLKSNERSAECGLIITPARLSTADKYLDSPRSGVMAQIYSVRSTLSWGMGDFNDLGNLASVVAQDGADFLLINPMHAAEPLPPTEDSPYLPTTRRFINPIYIRVEDIPEFNQLEIDLRDDIAEMAAEFRERNLTSDIIERNDVYAAKLQVLRAIFEMPRSSEREANFVSFVQREGQGLIDFATWCADRETAQSESVHGTEPDRDELTMFYMWLQWLCDEQLAAAQKRAVDAGMSIGIMADLAVGVHPGGADAQNLSHVLAPDASVGAPPDGYNQQGQDWSQPPWHPVRLAEEGYIPWRNLLRTVLRHSGGIRVDHVLGLFRLFVMPRMQSPATGTYIRFDHNALVGILALEAELAGAVVIGEDLGTFEPWVQDALAQRGIMGTSILWFEHSPSQPGPRRQEEYRPLALTTVTTHDLPPTAGYLEGEHIALRERLGVLNTDPAAELAEDLQWQAEILDVAASANALPAREYVGLERDQRGELAELLEGLHTFVAKTPSALTCVCLVDMVGEKRAQNQPGTTRDMYPNWCIPLCDSEGNSVLIESLRENELYHRVAKASKRDEGHHHHHH	not soluble
MVPAAENLSPIPASIDTNDIPLIANDLKLLETQAKLINILQGVPFYLPVNLTKIESLLETLTMGVSNTVDLYFHDNEVRKEWKDTLNFINTIVYTNFFLFVQNESSLSMAVQHSSNNNKTSNSERCAKDLMKIISNMHIFYSITFNFIFPIKSIKSFSSGNNRFHSNGKEFLFANHFIEILQNFIAITFAIFQRCEVILYDEFYKNLSNEEINVQLLLIHDKILEILKKIEIIVSFLRDEMNSNGSFKSIKGFNKVLNLIKYMLRFSKKKQNFARNSDNNNVTDYSQSAKNKNVLLKFPVSELNRIYLKFKEISDFLMEREVVQRSIIIDKDLESDNLGITTANFNDFYDAFYN	soluble
MGHHHHHHSHDFEFIRRVEASEESLDVVFAGRLIKEKGADLLIKAMKLLPDYSCLIVGEGPEKASLIKSAPENVKFAGFMNYGYLIATLKSAKVFVLPSRREGFGIAALEANACGLPVVTINHPMNAVVEIARETGFIASPSPQDIAEKIKIAMESRKKMRRRCVDYARKF	not soluble
MAHSTIPTLLCFCDEPLKRTNEGAEHVNQARRYAKWHVYRERGYETVPPTENPDSLLAACIAVARLSETAFEDAFGDIEAQIRSHYDDSTVELPFADADGSDILVYKKDIAVRPDPMTFDPPVLEQFLGQFSGDSDSPVVPAKADLDREVFDDLDFELKSVSGMHYLHNDGYDNERTVQSSQRLGTDPDATVEMIPVDPAEFGNFQHYVTSNLIYQARDVLLRMGVKPPIAFRAQGQGKYRATLEQQACPQYENYWDATADIQSWEPK	not soluble
MGSDKIHHHHHHMSNNSKISWTTTTWNVTAGCDPISDGCKNCYARMMAERLKAMGQAKYQNGFIPTIHSECLNEPFGWKGNKLVFVVSMGDLFHKDIPFDFIDKVIEVITKCPQHTFQILTKRAERMYEYFSTHAIPENVWLGVTVENQKVKGRIDYLKKLDAPVRFLSCEPLLEDLGTLDLSDIDWVIVGGESGNRARKVEKDWILNIKSQCDASTSTAFFFKQWGTWGADGVKRSAKENGCLLDGKEYHAYPTPRKIKP	not soluble
MEQELISKKELLELTGISYGQLYRWKRKKLIPEEWFIRKSTFTGQETFFPKEKILARIEKIKELKDELSLDELAGMFAPDPAAVVLTKEEVIKRHIVSNVALQWLSDQLGDRQDVSFGQLLSLYIVDRLLRSGEINIEEGKNIWMMFESHYPKLQGKSCELVVLRKMGVTVCLLVEEAAGLYVEEGAKLVARLHVPTYIEELKLTISEG	not soluble
MGSDKIHHHHHHDKMNKNTGALQFDSIQVNETAHLFNDTAKPACNIIINFAYPVKSSDDMLKDSLNAYFISVCFGDKYIGEKPEAVVKQYAKNYIDEYRHDQEPMYAEDEKNKESDAVVGAWYSYYKSIESHVQLYEKDLLVYRVDYNEYTGGAHGMYMSTFLNMDLTLMRPLRLDDIFVGDFQEALTDLIWNQLMADNKVTTHEALEDMGYASTGDIAPTENFYLSKEGITFYYNIYDITPYSMGPVKVTIPYSMMEHLLGSNPILGDLKD	not soluble
MGHHHHHHSHMPPYPANSVFCKDKVSLCCQVGPDFLGSSAPFSASHSAGITGMSHYAQPVFCSLNKGRTVW	not soluble
MSLDTDSGENNKDSSIPQGGVTVSPEVLAHRPLIEKYGKEYGIEDYVSYILAIMQVESGGTAEDVMQSSESLGLPPNSLSTEESIKQGVKYFSELLTSAEQQGVDIDSVIQSYNYGGGFLNYVRSHGKKYTYELAEQFSKEKSGGQKADYPNPIAIPVNGGWRYNYGNQFYVQLVSQYLTDTSPTEFDDETVQVIMDEALKYEGFPYVFGGASPTTSFDCSGLIQWVYDKAGISLPRVAQDQYDATQEISMEEAQAGDLIFFHSTYNAGTYVTHVAIYLEGNRFYHAGDPIGYGDLSSRYWQDHLIGARRVIHNEGHHHHHH	soluble
MAKRPSTSKNPAEDDELIIDECRRKLDDDESNDVGAYFEDDNQQGTSYRTPFMPSHLGLIQDQSPDLTMKDLFNRKRSRPQSTGFIDHSQARYYDRYKQQEYTRRNDFMKYCHVCRKKTVGKLRVLPGDLRMRKVWILRSNLDEERSAELWLREMACEGSHGGEFCEAHFPAGSQHMKGNQLIPLDVRPEEGRHSVVEDIQFDFDAIHLQCVFCGRDGPLATMLPFIRNRAKRLRWIEQLASGNETYKNRLLHALRGGVTQFLCDYHISDSSFEINGFGEWRLLKNALPDPRLVASDKRGERKYLVDKCRDEMFWERAMWKSADLLSQNGTADDEDIIVGDDIRQFLTNSVPSEAEQVLHPILQIKQNVEKKLNEADLQPGTSGTSGESNATADNLKIGISEEGVEYSDDSDEENELIEKMGDIPYSKRLCQVCSAVEPIGNEFPNNFPYKFSIRTWPFDECRHKKWLEIMDWPPEFEESMKTLWQKRKTEGALSDSYHFCPINVCQSHLDFRQLPERMEEWHQTFCLLCDTCMSDKSFLVGIPHNFETRTKWANSLFPVKEGNKFQLKKISWLRRRFLRSKPTRYRICVYHFNRKAFQVNQDDKIVLDAEALPLPIDSDDFDLTPRGPNSVCKCVLCDDWKKVEDMVPFRAPHSEAERSFLIDIVIHSDKMTIKKALASLAKTNRPALICNIHFPDGIDPFSIIAERRLMYGVQSECVLCAHANDCTAMIPFPGPDDEKLRTKWINSMCREPWIYRYLSTRLEKPGRHYLCASHFNRNSLRYHAGLGLWRRAAACPVLACTTDEERQEVWDLSKSQPLYHPLILETFDDNGSGRLDYDDVLNFLGTERMRQIETELNFHGRNDSLLRRENRKKNTGRSFYADMPNIYEHGELQEVEDQMEGEEEEVVQEECIIYEEEHHLDEAEELEVIEEEEVVEEIVEQVVDDGVVVGEEM	not soluble
MNKAINIKKTAPLEVLHSELPYTQDPTALFHALCAGRSDCLLLESAEIDSKQNLKSLLLVDAAVRIVCEGHQVTYHALSANGQALLNIIHSNLTDRIPCKVEKAKLTLTFSTPCDTLDEDSRLREASSFDALRLVQHSFDLTDHGKFALFLGGLFAYDLVANFEPLGEAPADNQCPDYVFYVAETLMVIDHQRETCQLQATQFQPGDALHSQLKSRMREIRAQVNQKLPLPSAQSLSDVEVTTNISDAAFCDIVRDLKQYVVKGDVFQVVPSRRFRLPCPSPLAAYQRLKQSNPSPYMFYMQDERFTLFGASPESALKYEMHTNQVEIYPIAGTRRRGKRADGSIDFDLDSRIELELRTDKKENAEHMMLVDLARNDVARISQAGTRHVADLLQVDRYSHVMHLVSRVVGQLREDLDALHAYQACMNMGTLTGAPKIRAMQLIRDVEQARRGSYGGAVGYLTGEGDLDTCIVIRSAYVENGIAQVQAGAGVVYDSDPQAEADETRGKAQAVISAILYAHQGKE	not soluble
MAAADIARQLGEDCRTVPLAGHVGFDSLPDQLVNKSVSQGFCFNILCVGETGLGKSTLMDTLFNTKFEGEPATHTQPGVQLQSNTYDLQESNVGLKLTIVSTVGFGDQINKEDSYKPIVEFIDAQFEAYLQEELKIRRVLHSYHDSRIHVCLYFIAPTGHSLKSLDLVTMKKLDSKVNIIPVIAKSDAISKSELAKFKIKITSELVSNGVQIYQFPTDDESVSEINGTMNAHLPFAVCSTEEVKIGNKMMRARQYPWGTVQVENEAHCDFVKLREMLIRVNMEDLREQTHARHYELYRRCKLEEMGFKDTDPDSKPFSLQETYEAKRNEFLGELQKKEEEMRQMFVQRVKEKEAELKEAEKELHEKFDRLKKLHQEEKKKLEDKKKCLDEEMNAFKQRKAAAELLQSQGSQAGGSQTLKRDKEKKNNPWLCIE	soluble
EILAKDQEAFMQSAKFLKEGKILAIKGIGGFHLMCDAFNEEALKTLRLRKNRPKKPFALMCKDLQSAKELAFIDEKEEALLGGVLAPIVILKAKKAFSLIAPDVDKIGIMLAYTPLHLLLFEYFKGSLVATSANLSGESIIKDEFNLCKKLDKVFDFYLDYDREIINASDDSIAQVVNGETMFLRTSR	not soluble
MGSDKIHHHHHHMNITASFRDASLVAFDFPEILTRISKIIDALKAHDDSLRYENWMLKGDNQEDATRYHVYDAAGIATPAALAVLREEFRNSKDFTYVAMWDGNLASDNGASISCHVGDKSLPDTLTLRIEGERWKAYAAISGIVSTMVTIFSPALVEVSFDEYAVKQVFDDKPGVGWMLYLPKVITQQQVPEARALIPVPAKGKQTGTIIISVTDAPFSVDNPEHVAIANRIEIRLVDQDLLPAYVDI	not soluble
KLVFLHGLGQDKTAWNDVIAALPHYDCLALDLFDEGKMPENFTTLVEQVATELKGIEEDFVLIGLSLGAMLALALSDYTFPHIKGFIVSGAQHDLKRSFLYKLQLLGLQLLPKSFFKKQGVKKDSFLAFSKSLSTLDLRETIRQIDIPALILCGQKDKPNLLPARKIAELIPNARLSVIKKGGHLLNTKMPIVFAKEITDFLK	not soluble
